Results as given in patent publication US7387779B2, “Anti-angiogenic proteins and fragments and methods of use thereof” (Beth Israel Deaconess Medical Center, priority 1998, dated 2008).

Key:
HUVECs [1] = assay: Total protein synthesis, 35S-methionine incorporation; type: cell-based, human; details: 4.5 μM; 24 hours of serum stimulation; rapamycin 100 ng/ml
Procedure: Primary human renal epithelial cells (HRE) were purchased from Clonetics (San Diego, Calif., USA) and were maintained in REGM (Clonetics Corp.). Other cell lines were obtained and maintained as described above. Cells were serum-starved for 24 hrs (0.5% FCS), stimulated with 10% FCS in the presence of T3 peptide, Tumstatin-44-131, endostatin or rapamycin for 12-24 hours. After pre-incubation of cells in methionine-free media for 1 hour, cells were labeled with ^35S-methionine for 1 hour and incorporation of radioactivity into trichloracetic acid precipitates was analyzed (Sudhakar, A. et al., 2000, Biochem. 39:12929-38; Maeshima, Y. et al., 1996, J. Amer. Soc. Nephrol. 7:2219-29). ANOVA with a one-tailed Student's t test was used to identify significant differences in multiple comparisons in the present study. A level of P<0.05 was considered statistically significant.

HUVECs [2] = assay: Endothelial cell migration, Boyden chamber; type: cell-based, human
Procedure: In the process of angiogenesis, endothelial cells not only proliferate but also migrate. Therefore, the effect of Canstatin on endothelial cell migration was assessed. The inhibitory effect of Canstatin and endostatin on FBS-induced chemotaxis was tested on human umbilical endothelial cells (HUVECs) using the Boyden chamber assay (Neuro-Probe, Inc., Cabin John, Md., USA). HUVECs cells were grown in M199 (Life Technologies/Gibco BRL, Gaithersburg, Md., USA) containing 10% FBS and 5 ng/ml DiC 18(3) living fluorescent stain (Molecular Probes, Inc., Eugene, Oreg., USA) overnight. After trypsinizing, washing and diluting cells in M199 containing 0.5% FBS, 60,000 cells were seeded in the upper chamber wells, together with or without Canstatin ([…]). M199 medium containing 2% FBS was placed in the lower chamber as a chemotactant. The cell-containing compartments were separated from the chemotactant with polycarbonate filters (Poretics Corp., Livermore, Calif., USA) of 8 μm pore size. […] Using a fluorescent high power field, several independent homogenous images were recorded by a digital SenSys™ camera operated with Image Processing Software PMIS (Roper Scientific/Photometrics, Tucson, Ariz., USA). Cells were counted by employing the OPTIMIZE 6.0 software-program (Media Cybernetics, Rochester, N.Y.) (Klemke, R. L. et al., 1994, J. Cell. Biol. 127:859-66).

FLIP = FLIP protein levels in HUVEC; type: cell-based, human; details: one hour after treatment, persisting up to 24 hours
Procedure: FLIP Protein Levels. HUVEC cells were treated as for the ERK assay, supra, and harvested at 0, 1, 3, 6, and 24 hours. FLIP protein levels in serum treated HUVEC cells and serum+Canstatin-treated HUVEC cells were quantified using anti-FLIP antibody (Sata, M. et al., 1998, J. Biol. Chem. 273:33103-6) and normalized for protein loading using levels of vinculin and plotted as a percentage of the 0 hour time points.

MDA-MB435 tumors = assay: MDA-MB435 breast cancer carcinoma orthotopic model (Example 41); type: in vivo; details: 5 mg or 20 mg per kilogram
DU-145 cells = assay: MTT cell viability assay; type: cell-based; details: 0-50 μg/ml
Procedure: Cell viability was measured by MTT assay, as described above.
The effects of Tumstatin-44-131 and Tum-5-125-C-A on cell viability of C-PAE cells were not seen in control PC-3 and DU-145 cells, as shown in FIGS. 52C and 52D. […] The activity of Tumstatin-44-131 is therefore specific to endothelial cells.

B1: endostatin: tumor associated angiogenesis inhibitor used as comparator (protein, UniProt P39060 1572-1754, looked up)
Endostatin: HSHRDFQPVLHLVALNSPLSGGMRGIRGADFQCFQQARAVGLAGTFRAFLSSRLQDLYSIVRRADRAAVPIVNLKDELLFPSWEALFSGSEGPLKPGARIFSFDGKDVLRHPTWPQKSVWHGSDPNGRRLTESYCETWRTEAPSATGQASSLLGGRLLGQSAASCHHAYIVLCIENSFMTASK
modifications: Endostatin
inhibition of protein synthesis (HUVECs [1]): did not inhibit protein synthesis

B2: Canstatin: NC1 domain of the α2 chain of Type IV collagen (SEQ ID NO:6) (protein, listed as Homo sapiens)
chain: VSIGYLLVKHSQTDQEPMCPVGMNKLWSGYSLLYFEGQEKAHNQDLGLAGSCLARFSTMPFLYCNPGDVCYYASRNDKSYWLSTTAPLPMMPVAEDEIKPYISRCSVCEAPAIAIAVHSQDVSIPHCPAGWRSLWIGYSFLMHTAAGDEGGGQSLVSPGSCLEDFRATPFIECNGGRGTCHYYANKYSFWLTTIPEQSFQGSPSADTLKAGLIRTHISRCQVCMKNL
concentration with significant effect on migration (HUVECs [2]): 10 ng/mL
FLIP protein levels (FLIP): decrease in FLIP protein levels

B3: Tum-1: residues 54 to 244 of Tumstatin, lacking the N-terminal 53 amino acids (SEQ ID NO:22) (protein)
chain: QRAHGQDLGTLGSCLQRFTTMPFLFCNVNDVCNFASRNDYSYWLSTPALMPMNMAPITGRALEPYISRCTVCEGPAIAIAVHSQTTDIPPCPHGWISLWKGFSFIMFTSAGSEGTGQALASPGSCLEEFRASPFLECHGRGTCNYYSNSYSFWLASLNPERMFRKPIPSTVKAGELEKIISRCQVCMKKRH
modifications: Tum-1 (Tumstatin N-53) (amino acids 54-244 of SEQ ID NO10)
anti-tumor activity (MDA-MB435 tumors): substantial anti-tumor activity

B4: Tumstatin-44-131: residues 44 to 131 of full-length Tumstatin (SEQ ID NO:33) (protein)
chain: FSFLFVQGNQRAHGQDLGTLGSCLQRFTTMPFLFCNVNDVCNFASRNDYSYWLSTPALMPMNMAPITGRALEPYISRCTVCEGPAIAI
modifications: Tumstatin-45-132 (amino acids 45-132 of SEQ ID NO10)
effect on viability of DU-145 cells (DU-145 cells): not seen
